We go through one molecule from article PMC12637021, “Talin–tensin3 interactions regulate fibrillar adhesion formation and tensin3 phase separation” (The Journal of Cell Biology, 2025).

For experiment [1], the system named is active β1 integrin, U2OS TNS3KO cells. Briefly: β1 integrin-positive adhesions, U2OS TNS3KO cells. Format: cell-based, human. The conditions noted are these: vs TNS3-WT; FN-coated; 9EG7. As to the method: (§1) Cells were fixed in 4% paraformaldehyde (PFA, Sigma-Aldrich), which had been prewarmed to 37°C for 15 min before being washed three times with PBS. For immunofluorescence staining, cells were permeabilized with 0.5% Triton X-100 (Sigma-Aldrich) at room temperature for 5 min before being washed three times with PBS. Blebbistatin (Tocris Bioscience) was diluted in dimethyl sulfoxide (Sigma-Aldrich) and used at a final concentration of 50 μM. […]
(§2) Analysis of cell adhesion sites, FN fibrils, and LLPS condensates was performed using FIJI/ImageJ (version 1.54f) software ([Schindelin et al., 2012]). […] Prior to adhesion quantification, the images were background-subtracted using a rolling ball algorithm, followed by thresholding of adhesion sites and Analyse Particles functions in FIJI/ImageJ to quantify adhesions. Adhesion sites with sizes between 0.4 and 10 μm^2 were counted, except for adhesions in blebbistatin-treated cells, which were counted with sizes between 0.2 and 4 μm^2. […]

The test system of experiment [2] is NIH3T3 cells. As to the kind of experiment: condensates on soft vs stiff PDMS, NIH3T3 cells. It is filed as cell-based, mouse. The conditions noted are these: 1.5 kPa vs 28 kPa FN-coated PDMS, overnight. How it is done:
Imaging dishes equipped with 40 µm-thick PDMS substrates (1.5 and 28 kPa) were purchased from ibidi. PDMS dishes were coated with 30 μg/ml FN for 1 h, followed by three washes with PBS. Dishes were incubated with DMEM for 10 min to equilibrate before cells were plated and incubated overnight at 37°C.
(§3) To establish a correlation between tensin3 expression and condensation formation, a maximum intensity Z-projection was performed on Z-stack images of NIH3T3 cells (step depth 0.2 μm). The integrated fluorescence intensity was measured by normalizing the mean pixel intensity of each cell to the average of all values in cells expressing mCh-TNS3. To measure the condensate coverage in NIH3T3 cells, the images were background-subtracted (rolling ball) and then thresholded. This was followed by the Analyse Particles function in FIJI/ImageJ to select round condensate structures (circularity 0.7–1.0) ([Bussi et al., 2023]; [Dumelie et al., 2024]) with a size larger than 0.1 μm^2. The same settings were applied to quantify the number of condensates in NIH3T3 and HFF cells.

For experiment [3], the system named is NIH3T3 cells. Briefly: tensin3 condensate formation, NIH3T3 cells. Format: cell-based, mouse. As to the method: as §3
The percentage of NIH3T3 cells transfected with mCh-TNS3 that form phase-separated condensates was quantified manually in images (610 × 499 μm) acquired with a 20× objective. To quantify the mean radius (R) of the condensates, the area covered by the condensates was divided by the number of condensates for each cell to obtain the mean size (A) of the condensates, followed by the formula of R = √(A/3.14).

Experiment [4] has as its system U2OS TNS3KO cells. Briefly: vinculin-positive FAs on VN. Format: cell-based, human. Conditions: TNS3-WT vs TNS3-L702E; VN-coated, serum-free; n = 74 (WT) and 51 (L702E) cells. How it is done:
as §1, §2

The test system of experiment [5] is NIH3T3 cells. As to the kind of experiment: FRAP of GFP-TNS3 in adhesions. Format: cell-based, mouse. The conditions noted are these: vs TNS3-WT; 37°C; n = 27 (WT) and 26 (L702E) adhesions. As to the method:
Transfected NIH3T3 cells were incubated in prewarmed DMEM medium at 37°C for 1 h to equilibrate prior to imaging. FRAP experiments were performed using a spinning disk confocal microscope as described above. Slidebook software (version 6.0.3, 3I) was used to set up the experiment. Regions of interest (ROIs) were manually adjusted to the shape of adhesion. A 488-nm laser was used at 100% power to bleach one to three adhesion ROIs per cell. Three prebleach images were acquired, followed by one image every 10 s for 3 min after bleach. Time-lapse images were analyzed using FIJI/ImageJ software ([Schindelin et al., 2012]) to obtain the intensity values of three control unbleached control ROIs and bleached ROIs over time. Values were background-subtracted, and measurements were corrected with the control values of the unbleached ROIs to compensate for any overall fluorescence loss. Intensity values were then normalized to the first postbleach value; normalized data were fitted to a one-phase association model Y=Y0+(Plateau-Y0)*(1-exp(-K*x)) using GraphPad Prism 10 software. Coefficients of the curve fit were extracted and transformed to generate the mobile fraction and halftime of recovery.

Experiment [6] has as its system U2OS TNS3KO cells. Briefly: α5 integrin-positive FBs, rescue of TNS3KO cells. Conditions: vs mCh-TNS3-WT; FN-coated, overnight; SNAKA51 antibody; n = 37 (WT) and 47 (L702E) cells. It is filed as cell-based, human. As to the method: as §1, §2

B1: TNS3-L702E: tensin3 carrying the L702E point mutation that blocks the interaction with talin (protein, UniProt Q68CZ2 1-1445, looked up, variant L702E)
Tensin-3: MEEGHGLDLTYITERIIAVSFPAGCSEESYLHNLQEVTRMLKSKHGDNYLVLNLSEKRYDLTKLNPKIMDVGWPELHAPPLDKMCTICKAQESWLNSNLQHVVVIHCRGGKGRIGVVISSYMHFTNVSASADQALDRFAMKKFYDDKVSALMQPSQKRYVQFLSGLLSGSVKMNASPLFLHFVILHGTPNFDTGGVCRPFLKLYQAMQPVYTSGIYNVGPENPSRICIVIEPAQLLKGDVMVKCYHKKYRSATRDVIFRLQFHTGAVQGYGLVFGKEDLDNASKDDRFPDYGKVELVFSATPEKIQGSEHLYNDHGVIVDYNTTDPLIRWDSYENLSADGEVLHTQGPVDGSLYAKVRKKSSSDPGIPGGPQAIPATNSPDHSDHTLSVSSDSGHSTASARTDKTEERLAPGTRRGLSAQEKAELDQLLSGFGLEDPGSSLKEMTDARSKYSGTRHVVPAQVHVNGDAALKDRETDILDDEMPHHDLHSVDSLGTLSSSEGPQSAHLGPFTCHKSSQNSLLSDGFGSNVGEDPQGTLVPDLGLGMDGPYERERTFGSREPKQPQPLLRKPSVSAQMQAYGQSSYSTQTWVRQQQMVVAHQYSFAPDGEARLVSRCPADNPGLVQAQPRVPLTPTRGTSSRVAVQRGVGSGPHPPDTQQPSPSKAFKPRFPGDQVVNGAGPELSTGPSPGSPTLDIDQSIEQENRLILELDPTFEPIPTHMNALGSQANGSVSPDSVGGGLRASSRLPDTGEGPSRATGRQGSSAEQPLGGRLRKLSLGQYDNDAGGQLPFSKCAWGKAGVDYAPNLPPFPSPADVKETMTPGYPQDLDIIDGRILSSKESMCSTPAFPVSPETPYVKTALRHPPFSPPEPPLSSPASQHKGGREPRSCPETLTHAVGMSESPIGPKSTMLRADASSTPSFQQAFASSCTISSNGPGQRRESSSSAERQWVESSPKPMVSLLGSGRPTGSPLSAEFSGTRKDSPVLSCFPPSELQAPFHSHELSLAEPPDSLAPPSSQAFLGFGTAPVGSGLPPEEDLGALLANSHGASPTPSIPLTATGAADNGFLSHNFLTVAPGHSSHHSPGLQGQGVTLPGQPPLPEKKRASEGDRSLGSVSPSSSGFSSPHSGSTISIPFPNVLPDFSKASEAASPLPDSPGDKLVIVKFVQDTSKFWYKADISREQAIAMLKDKEPGSFIVRDSHSFRGAYGLAMKVATPPPSVLQLNKKAGDLANELVRHFLIECTPKGVRLKGCSNEPYFGSLTALVCQHSITPLALPCKLLIPERDPLEEIAESSPQTAANSAAELLKQGAACNVWYLNSVEMESLTGHQAIQKALSITLVQEPPPVSTVVHFKVSAQGITLTDNQRKLFFRRHYPVNSVIFCALDPQDRKWIKDGPSSKVFGFVARKQGSATDNVCHLFAEHDPEQPASAIVNFVSKVMIGSPKKV
modifications: mCherry or GFP tag
B1: the “reduction of adhesion-promoting effect (β1 integrin-positive adhesions)” value in experiment [1] stood at 57%. The “condensates on soft vs stiff substrate” value in experiment [2] is “no difference in condensate formation on soft versus stiff substrates”. In addition, in experiment [3] (n = 181 cells (WT), 168 cells (L702E)), the “Spearman's r, expression level vs condensate coverage” value is listed as 0.9013. The “fold increase in number of condensates” value in experiment [3] (vs TNS3-WT, condensates >0.1 μm^2, circularity 0.7–1, n = 68 (WT) and 100 (L702E) cells) amounted to 2.2 fold. Also, the condensate size result in experiment [3] (vs TNS3-WT, mean radius) is reported as “larger”. Also, the “formation of vinculin-positive FA” value in experiment [4] is “no difference”. Moreover, in experiment [5], the “halftime of recovery (FRAP)” value is “significantly higher” and the “mobile fraction (FRAP)” value is reported as “significantly higher”. The “reduction in centrally located α5 integrin-positive FBs” value in experiment [6] worked out at 55%.
